To fix the notation:
B1: FJP06D01-H + 21188-L (antibody, V domains shown)
VH: EVQLVESGGDLVKPGGSLRLSCVASGFPFRDYAMDWVRQAPGKGLQWLSLISGSGGKTYYADAVKGRFTISRDNAKNTLYLQMNSLRAEDTAVYYCAVDRLTKTIRPQYYGLWVWGQGTLVTVSS
VL: DIVMTQTPLSLSVSPGETASISCRSSQSLTYSIGYNYLDWYMQKPGQSPQGLIYLGSKRASGVSDRFSGSGSGADFTLKISRVEADDAGVYYCMQGLQSPLGFGQGTKLEIKR
B2: FJP05A03-H + 21188-L (antibody, V domains shown)
VH: B1 VH with F27L, D35A
VL: B1 VL
B3: Fjmix_PS-H + 21188-L (antibody, V domains shown)
VH: B1 VH with V114S
VL: B1 VL
B4: 21188-H + 21188-L (antibody, V domains shown)
VH: B1 VH with P28T, D35T, V114H
VL: B1 VL
B5: Gfmix_PTH-H + 21188-L (antibody, V domains shown)
VH: B1 VH with D35T, V114H
VL: B1 VL
B6: FJP07H09-H + 21188-L (antibody, V domains shown)
VH: B1 VH with P28T, V114S
VL: B1 VL
B7: TB640_005 Fab-SASA VL-T102S (Fab, V domains shown)
VH: B1 VH with P28T, D35T, L48V
VL: B1 VL with T30L, M42L, S64P, A74T, K79R, D86N, A88T, G102S
notes: not shown: SASA tag then His-tag
B8: TB640_005 Fab-SASA VL-Y35M (Fab, V domains shown)
VH: B1 VH with P28T, D35T, L48V
VL: B1 VL with T30L, Y35M, M42L, S64P, A74T, K79R, D86N, A88T, G102T
notes: as for B7
B9: TB640_275 (antibody, V domains shown)
VH: B1 VH with P28T
VL: B1 VL with T30L, G102T
notes: also called TB640_275-H + TB640_275-L
B10: TB640_005 (antibody, V domains shown)
VH: B1 VH with P28T, D35T, L48V
VL: B1 VL with T30L, M42L, S64P, A74T, K79R, D86N, A88T, G102T
notes: caninized IgG; also called TB640_005-H + TB640_005-L
B11: GFmix_PTH-H + FJP10A09-L (antibody, V domains shown)
VH: B1 VH with D35T, V114H
VL: B1 VL with Q98H, G102S
B12: FJP05A03-H + GFmix_THS-L (antibody, V domains shown)
VH: B1 VH with F27L, D35A
VL: B1 VL with Q98H
B13: GFmix_PTH-H + GFmix3_KTHS-L (antibody, V domains shown)
VH: B1 VH with D35T, V114H
VL: B1 VL with Q27K, Q98H, G102S
B14: FJP05A03-H + FJP10A09-L (antibody, V domains shown)
VH: B1 VH with F27L, D35A
VL: B1 VL with Q98H, G102S
B15: FJP05A03-H + GFmix3_KTHS-L (antibody, V domains shown)
VH: B1 VH with F27L, D35A
VL: B1 VL with Q27K, Q98H, G102S
B16: 21188-H + GFmix3_KTHS-L (antibody, V domains shown)
VH: B1 VH with P28T, D35T, V114H
VL: B1 VL with Q27K, Q98H, G102S
B17: 21188-H + FJP10A09-L (antibody, V domains shown)
VH: B1 VH with P28T, D35T, V114H
VL: B1 VL with Q98H, G102S
B18: 21188-H + FJP10F04-L (antibody, V domains shown)
VH: B1 VH with P28T, D35T, V114H
VL: B1 VL with Q27K, T30L, Q98H, G102T
B19: 21188-H + GFmix2_KTHG-L (antibody, V domains shown)
VH: B1 VH with P28T, D35T, V114H
VL: B1 VL with Q27K, Q98H
B20: 21188-H + GFmix_THS-L (antibody, V domains shown)
VH: B1 VH with P28T, D35T, V114H
VL: B1 VL with Q98H
B21: Dupilumab (dupilumab VH with human IgG1 constant region, dupilumab kappa light chain) (antibody, V domains shown)
VH: EVQLVESGGGLEQPGGSLRLSCAGSGFTFRDYAMTWVRQAPGKGLEWVSSISGSGGNTYYADSVKGRFTISRDNSKNTLYLQMNSLRAEDTAVYYCAKDRLSITIRPRYYGLDVWGQGTTVTVSS
VL: DIVMTQSPLSLPVTPGEPASISCRSSQSLLYSIGYNYLDWYLQKSGQSPQLLIYLGSNRASGVPDRFSGSGSGTDFTLKISRVEAEDVGFYYCMQALQTPYTFGQGTKLEIKR
notes: human IgG1 instead of the IgG4 of the drug
B22: TB640_109 (antibody, V domains shown)
VH: B1 VH with P28T, D35T, L48V, L50T, W113S
VL: DIVMTQTPLSLSVSPGETASISCRASQSLLYSIGYNYLDWYLQKPGQSPQGLIYLGSKRASGVPDRFSGSGSGTDFTLRISRVEANDTGVYYCMQALRDPYTFGQGTKLEIKR
notes: caninized IgG
B23: TB640_057 (antibody, V domains shown)
VH: EVQLVESGGDLVKPGGSLRLSCVASGFTFRDYAMTWVRQAPGKGLQWVSTITGSGGNTYYADAVKGRFTISRDNAKNTLYLQMNSLRAEDTAVYYCAKDRLSITIRPRYYGLDVWGQGTLVTVSS
VL: B22 VL with L97I, R98Q, D99A
notes: caninized IgG

Numbering of substitutions follows the chain as printed.

One assay deals with T1, Extracellular domain (ECD) of the canine IL-4 receptor alpha-AviTag-His Tag (canine).
T1 construct: expressed in CHO cells; also called canine IL-4RA; canine IL4Ra
T1 chain: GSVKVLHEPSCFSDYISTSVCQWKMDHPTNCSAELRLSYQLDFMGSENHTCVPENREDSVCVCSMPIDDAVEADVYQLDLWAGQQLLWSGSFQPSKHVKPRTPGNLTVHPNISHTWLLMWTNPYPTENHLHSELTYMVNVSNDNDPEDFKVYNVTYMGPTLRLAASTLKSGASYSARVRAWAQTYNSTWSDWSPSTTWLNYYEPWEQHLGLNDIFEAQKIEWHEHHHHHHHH
The assay is described as follows: SPR, IgG captured via anti-dog Fc.
Procedure: (§1) Both the heavy and light chain variants were evaluated for their binding kinetics to canine IL-4RA using SPR on a Biacore T200. The antibodies were captured using a CM5 Series S chip amine coupled with an anti-dog Fc antibody (Jackson Immunoresearch). […] The length of the association time was 120 s and the dissociation time was run for 600 s. The chip surface was regenerated with 10 mM glycine. Double reference-subtracted sensorgrams were fitted to a 1:1 binding model using Biacore T200 Evaluation software.
In turn, B1 returned a Kd of 0.908 nM, a koff of 0.000208 s⁻¹ and a kon of 230000 M⁻¹ s⁻¹.
For B2, in that order: 0.377 nM, 0.000105 s⁻¹ and 279000 M⁻¹ s⁻¹.
The matching figures for B3: 0.878 nM, 0.000206 s⁻¹ and 235000 M⁻¹ s⁻¹.
The matching figures for B4: 0.4 nM, 9.85e-05 s⁻¹ and 246000 M⁻¹ s⁻¹.
For B5, the Kd amounted to 0.381 nM, the off-rate constant (koff) was 9.71e-05 s⁻¹ and the kon was determined as 255000 M⁻¹ s⁻¹.
For B6, in that order: 1.07 nM, 0.000253 s⁻¹ and 236000 M⁻¹ s⁻¹.

The target in a further assay is T2, Extracellular domain (ECD) of the canine IL-4 receptor alpha-V5 epitope-AviTag-His Tag (canine).
T2 construct: monomeric form isolated by size exclusion; also called canine IL-4RA-V5-Avi-His; canine IL-4RA
T2 chain: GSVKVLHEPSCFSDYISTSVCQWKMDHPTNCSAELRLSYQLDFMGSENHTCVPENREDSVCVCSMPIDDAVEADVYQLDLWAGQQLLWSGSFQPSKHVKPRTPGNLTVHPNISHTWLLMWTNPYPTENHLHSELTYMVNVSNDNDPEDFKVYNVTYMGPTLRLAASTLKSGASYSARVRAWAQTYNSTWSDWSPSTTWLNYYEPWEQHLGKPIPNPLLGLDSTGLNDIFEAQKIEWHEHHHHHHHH
The assay is described as follows: SPR, Fab-SASA captured on BSA.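 Note: biacore T200 SPR, Fab-SASA variants from E. coli conditioned medium captured on BSA-coated CM5 chip, canine IL-4RA injected 120 s then 420 s dissociation, 1:1 model fit.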
As for B7, the affinity, expressed as Kd, was 6.61 nM; the “Ratio WT-kd/clone-kd” value came out at 1.94; the koff came to 0.000492 s⁻¹; the on-rate (kon) was 74400 M⁻¹ s⁻¹.
For the molecule B8, the Kd was determined as 8.34 nM, the “Ratio WT-kd/clone-kd” value amounted to 1.02, the off-rate (koff) stood at 0.000932 s⁻¹ and the kon came to 112000 M⁻¹ s⁻¹.

Another assay deals with T1, Extracellular domain (ECD) of the …. As to the kind of experiment: SPR, IgG captured via anti-dog H+L.
Procedure: (§2) Affinities were determined by SPR on a Biacore T200. The antibodies were captured using a CM5 Series S chip amine coupled with an anti-dog H+L antibody (Jackson Immunoresearch). Antigen, canine IL-4RA (EQ ID NO:2), binding was then assessed at multiple concentrations starting at 100 nM using PBSP+ running buffer (Cytiva) with a flow rate of 30 μL/min. […] The length of the association time was 120 s and the dissociation time was run for 600 s. The chip surface was regenerated with 10 mM glycine.
In turn, B9 gave a Kd of 1.71 nM, a koff of 0.000487 s⁻¹ and a kon of 287000 M⁻¹ s⁻¹.

The next assay has the same target. As to the kind of experiment: SPR, IgG captured via anti-dog Fc. The source holds these as a separate data set.
Procedure: as §1
Six different combinations of heavy and light chain variants (Table 30) were co-transfected and produced as described above. The binding kinetics of the heavy and light chain variants to canine IL-4RA was determined using the SPR methods described above.
For the molecule B10, the affinity, expressed as Kd, was 2.29 nM; the dissociation rate constant (koff) came to 0.000486 s⁻¹; the association rate constant (kon) came out at 212000 M⁻¹ s⁻¹.
For B11, in that order: 0.167 nM, 7e-05 s⁻¹ and 419000 M⁻¹ s⁻¹.
For B12, in that order: 0.169 nM, 8.32e-05 s⁻¹ and 492000 M⁻¹ s⁻¹.
For B13, in that order: 0.17 nM, 7.58e-05 s⁻¹ and 447000 M⁻¹ s⁻¹.
B4 had a dissociation constant (Kd) of 0.243 nM, a koff of 9.93e-05 s⁻¹ and a kon of 410000 M⁻¹ s⁻¹.
Molecule B14 yielded a Kd of 0.201 nM, a koff of 8.87e-05 s⁻¹ and a kon of 442000 M⁻¹ s⁻¹.
The matching figures for B15: 0.187 nM, 8.68e-05 s⁻¹ and 466000 M⁻¹ s⁻¹.

The target is the same in the next assay. The assay is described as follows: SPR, IgG captured via anti-dog Fc. This is another data set of the same source.
Procedure: as §1
B4: binding was characterised by a dissociation constant (Kd) of 0.18 nM, the koff amounted to 5.96e-05 s⁻¹ and the kon turned out to be 332000 M⁻¹ s⁻¹.
For B16, in that order: 0.144 nM, 4.79e-05 s⁻¹ and 333000 M⁻¹ s⁻¹.
The matching figures for B17: 0.143 nM, 4.62e-05 s⁻¹ and 324000 M⁻¹ s⁻¹.
Regarding B18, the affinity, expressed as Kd, was 0.238 nM; the koff worked out at 6.81e-05 s⁻¹; the on-rate (kon) was 286000 M⁻¹ s⁻¹.
B19: the Kd was 0.168 nM, the koff is 5.92e-05 s⁻¹ and the kon was determined as 354000 M⁻¹ s⁻¹.
The matching figures for B20: 0.162 nM, 5.78e-05 s⁻¹ and 357000 M⁻¹ s⁻¹.

The next assay has as its target canine IL-4RA on canine DH82 cells (canine). The assay is described as follows: cell-based or functional assay.
As to B13, the “IC50: % inhibition of STAT6 phosphorylation (AlphaLISA pSTAT6) in canine DH82 cells stimulated with 20 ng/mL canine IL-4” value stood at 0.6 nM.
Regarding B4, the “IC50: % inhibition of STAT6 phosphorylation (AlphaLISA pSTAT6) in canine DH82 cells stimulated with 20 ng/mL canine IL-4” value was found to be 2.17 nM.

A further assay has as its target T2, Extracellular domain (ECD) of the …. The assay is described as follows: SPR, antibody captured via anti-human Fc.
Procedure: To determine the affinity of dupilumab more accurately for canine IL-4RA, an SPR experiment was completed using a Biacore T200 instrument. In this experiment, a CM5 sensor chip (Cytiva, cat #BR100530) was used to immobilize anti-human Fc following the instructions of Human Antibody Capture Kit (Cytiva, cat #BR100839). […] The running buffer was HBS-EP buffer (10 mM HEPES pH 7.4, 150 mM NaCl, 3 mM EDTA and 0.005% (v/v) P20 surfactant). […] All kinetic and steady state analyses were performed using BIAEVAL provided by BIACORE Inc.
B21 yielded a dissociation constant (Kd) of 130 nM, a koff of 0.143 s⁻¹ and a kon of 1.09e+06 M⁻¹ s⁻¹.

The target of a further assay is T1, Extracellular domain (ECD) of the …. As to the kind of experiment: SPR, IgG captured via anti-dog H+L. This is another data set of the same source.
Procedure: as §2
Regarding B22, the Kd was 6.06 nM, the koff came to 0.00136 s⁻¹ and the kon worked out at 225000 M⁻¹ s⁻¹.
The matching figures for B23: 5.54 nM, 0.00107 s⁻¹ and 194000 M⁻¹ s⁻¹.
For B10, in that order: 2.72 nM, 0.000484 s⁻¹ and 180000 M⁻¹ s⁻¹.

The values above are taken from patent US20250188176A1 (INVETX, published 2025).
